Laboratory results from patent publication US5789539, “Chemokine-like proteins and methods of use” (Repligen Corporation, dated 1998).
Residue numbers refer to the chain shown, from its start. Values belong to the binder of their own block, whether it stands above or below them.

Assays:
[1] = molecular target: T1, human neutrophil IL-8 receptor subtype B (huIL8Rb) (human, UniProt P25025); assay: competition with 0.5 nM 125I-labeled IL-8 on CHO cells expressing huIL8Rb
Description: (§1) receptor subtype B (huIL8Rb), was used in binding assays to test mutant chemokine binding. Approximately 5×10^3 cells were plated in the wells of a 96 well plate and grown for 2 to 3 days. The medium was replaced with phosphate-buffered saline (PBS) supplemented with 0.5% BSA (PBS/BSA), 0.5 nM ^125I-labeled IL-8, and increasing concentrations of the various unlabeled chemokines. The plates were incubated on ice for 90 minutes, the binding mixture was removed, and the cells were washed three times with ice-cold PBS/BSA. The cells were removed from the plates with trypsin-EDTA (Gibco), and the radioactivity of the entire contents of the well determined by gamma counting. Binding of each chemokine to untransfected cells, or binding in the presence of 2 μM unlabeled IL-8, was determined and the value obtained used as the background value. Binding data was plotted as percent of mean specific binding (total binding minus background/specific binding with no competitor). […] "NC" indicates no competition.

[2] = molecular target: T1, human neutrophil IL-8 receptor subtype …; assay: competition with 0.5 nM 125I-labeled IL-8 on CHO cells expressing huIL8Rb; "NC" indicates no competition
Description: as §1

Ki [1]: 52 nM
B1: PF4M2 (ligand)
chain: MSAKELRCQCVKTTSQVRPRHITSLEVIKAGPHCPTAQLIATLKNGRKICLDLQAPLYKKIIKKLLES

binding result [2]: no binding
B2: wild-type platelet factor 4 (PF4) (ligand)
chain: EAEEDGDLQCLCVKTTSQVRPRHITSLEVIKAGPHCPTAQLIATLKNGRKICLDLQAPLYKKIIKKLLES

Ki [1]: 839 nM
B3: PF4M1 (ligand)
chain: B2 chain with Q9R
